Assay [1] deals with T1, TGEV RBD (receptor-binding domain of the transmissible gastroenteritis coronavirus spike protein) (transmissible gastroenteritis …).
T1 chain: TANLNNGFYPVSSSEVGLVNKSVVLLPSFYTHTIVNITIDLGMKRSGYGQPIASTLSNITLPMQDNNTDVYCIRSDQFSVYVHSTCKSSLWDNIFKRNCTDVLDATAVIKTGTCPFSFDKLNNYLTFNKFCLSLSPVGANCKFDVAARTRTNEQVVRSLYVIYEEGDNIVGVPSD
Nature of the assay: SPR. For orientation: Surface plasmon resonance follows binding to a sensor surface in real time, without labels.

The target of assay [2] is Arabian camel aminopeptidase N ectodomain fused with the Fc domain of human IgG (Arabian camel (Camelus dromedarius)). Nature of the assay: SPR.

This passage reports Kd results from publication PMC11741606 (2025).

B1: cat aminopeptidase N ectodomain fused with the Fc domain of human IgG (Fc fusion)
chain: YSQEKNRSTESSTAASTAAPTGPTTTVATTLDQSKPWNVYRLPKTLIPDSYNVTLRPYLTPNNKGLYVFTGTNIVRFTCKESTNIVIIHSKRLNYTSHQGHMVALSGVGGFHPQPVIVRTELVELTEYLVVHLQEPLVAGRQYEMNSEFQGELADDLAGFYRSEYMENGVKKVLATTHMQATEARKSFPCFDEPAMKATFNITIIHPNNLVALSNMLPRGPSVPFGEDPTWKVTEFETTPIMSTYLLAYIVSEFSYVETRAPSGVLIRIWARPSAINQGHGDYALKVTGPILDFFSQHYDTPYPLNKSDQIALPDFNAGAMENWGLVTYRESALLYDRQSSSSGNQERVVTVIAHELAHQWFGNLVTLEWWNDLWLNEGFASYVEYLGADFAEPTWNLKDLMVLNDVYRVMAVDALASSHPLSTPASEINTPAQISEVFDSISYSKGASVLRMLSNFLTEDLFKMGIASYLHTYKYGNTIYLNLWEHLQQVVDKQPTIKLPDTVSAIMDRWILQMGFPVITVDTQTGTISQQHFLLDPQSVVTRPSQFNYLWIVPISSVRSGSPQAHYWLPGVEKAQNDLFKTTANDWVLLNLNVTGYYLVNYDNENWKKIQTQLQTDLSVIPVINRAQVIHDAFNLASAQKVPVTLALNNTLFLIQETEYMPWQAALSSLSYFKLMFDRSEVYGPMKRYLKKQVTPLFNHFERVTKNWTDHPQTLMDQYSEINAVSTACSYGVPECEKLAATLFAQWKKNPQNNPIHPNLRSTVYCNAIAQGGEEEWNFVWEQFLKAELVNEADKLRGALACSNQVWILNRFLSYTLDPNLIRKQDVTSTLSSISSNVVGQTLVWDFVQSNWKKLFQDYGTGSFSFSNLIQAVTRRFSTEFELQQLEQFKKNNMDTGFGSATRALEQALEKTKANLKWVKENKDVVLRWFTENS
Molecule B1 registered a Kd in assay [1] of 35.6 nM.

B2: PDCoV RBD (receptor-binding domain of the porcine deltacoronavirus spike protein) (domain or fragment)
chain: VTLPKLPELEVVQLNISAHMDFGEARLDSVTINGNTSYCVTKPYFRLETNFMCTGCTMNLRTDTCSFDLSAVNNGMSFSQFCLSTESGACEMKIIVTYVWNYLLRQRLYVTAVEGQTHTGTTSVHATDTSSV
B2 displayed a Kd in assay [2] of 10800 nM.

B3: bovine aminopeptidase N ectodomain fused with the Fc domain of human IgG (Fc fusion)
chain: YAQEKNKNAERGTAAPTSPTGPTTTSATTLDQSKPWNRYRLPTTLLPDSYRVTLRPYLTPNNNGLYIFTGSSTVRFTCKEPTDVIIIHSKKLNYTQHSGHLAALKGVGDTQAPEIDRTELVLLTEYLVVHLKSSLEAGKTYEMETTFQGELADDLAGFYRSEYMDGNVKKVLATTQMQSTDARKSFPCFDEPAMKATFNITLIHPKDLTALSNMPPKGPSVPFDGDSNWSVTEFETTPVMSTYLLAYIVSEFTSVESVAPNDVQIRIWARPKATADNHGLYALNVTGPILNFFANHYNTAYPLPKSDQIALPDFNAGAMENWGLVTYRENALLYDPQSSSSSNKERVVTVIAHELAHQWFGNLVTLAWWNDLWLNEGFASYVEYLGADYAEPTWNLKDLMVPNDVYSVMAVDALVTSHPLTTPANEVNTPAQISEMFDTISYSKGASVIRMLSNFLTEDLFKKGLASYLQTFAYQNTTYLNLWEHLQMAVENQLSIRLPDTVSAIMDRWTLQMGFPVITVDTNTGTISQKHFLLDPNSTVTRPSQFNYLWIVPISSIRNGQPQEHYWLRGEERNQNELFKAAADDWVLLNINVTGYYQVNYDENNWKKIQNQLMSRRENIPVINRAQVIYDSFNLASAHMVPVTLALNNTLFLKNEMEYMPWQAAVSSLNYFKLMFDRTEVYGPMQNYLKNQVEPIFLYFENLTKNWTEIPENLMDQYSEINAISTACSNGLPKCEELAKTLFNQWMNNPNVNPIDPNLRSTIYCNAIAQGGQEEWDFAWNQLQQAELVNEADKLRSALACTNHVWLLNRYLSYTLNPDLIRKQDATSTITSIASNVIGQSLAWDFIRSNWKKLFEDYGGGSFSFSNLIQGVTRRFSTEFELQQLEEFKENNMDVGFGSGTRALEQALEKTKANINWVKENKEVVLNWFKDHS
modifications: Wild type. Position 797 in the paper is dog APN alignment numbering, not bovine numbering. Limits from TOPO_DOM extracellular. hFc carrier omitted. N-glycosylated (HEK293T).
The molecule B3 showed a Kd in assay [1] of 1660 nM.

In general, Kd refers to the concentration at which binding is half-saturated. Higher therefore signals weaker binding.
